The text below walks through data of paper PMC6336276.

The test system of one data set is P69949. As to the kind of experiment: AUC; sedimentation velocity of Str. enolase alone, TME-SO4, 20°C, 37000 rpm; c(s) distribution, percent octamer and monomer; octamer to monomers and other species.
Data set [1] addresses Str. enolase DB (Streptococcus pyogenes) (UniProt P69949). Described as above.
For data set [2], the target named is Str. enolase DB no hexa-his tag (Streptococcus pyogenes) (UniProt P69949). The description is as above.
Data set [3] deals with Str. enolase F137L/E363G (Streptococcus pyogenes) (UniProt P69949). Put plainly: AUC; sedimentation velocity of Str. enolase alone in different buffers (KPi with or without Mg(II), NaCl, imidazole; TME-SO4); octamer to monomers, dimers, tetramers.
Data set [4] addresses Str. enolase 137/363–4 (Streptococcus pyogenes) (UniProt P69949). As to the kind of experiment: AUC; sedimentation velocity, TME-SO4, 20°C; five concentrations of 137/363–4 (1-11.7 μM) and DPgn (0.43-4.2 μM); global fit to an equilibrium constant in Sedphat.
Data set [5] deals with Str. enolase DB (Streptococcus pyogenes) (UniProt P69949). Put plainly: AUC; sedimentation velocity, 20°C, 37000 rpm, TME-SO4; DPgn alone, Str. enolase alone and the mixture at the same concentrations; shift of the s value of the DPgn peak (Sedfit c(s), DCDT+).
The target in data set [6] is Str. enolase 137/363–2 K252A K255A (Streptococcus pyogenes) (UniProt P69949). Put plainly: dual polarization interferometry (DPI); Str. enolase adsorbed first on an unmodified silicon oxynitride chip, then DPgn injected; 3 μM each protein, 8 min injections, 25 μL/min/channel, 20°C; proteins in TME-SO4, wash buffer 10 mM phosphate.
Data set [7] has as its target Str. enolase DB (Streptococcus pyogenes) (UniProt P69949). Described as above.
The target in data set [8] is Str. enolase 137/363–4 (Streptococcus pyogenes) (UniProt P69949). Put plainly: SPR; localized SPR (Nicoya OpenSPR); hexa-his-tagged Str. enolase 137/363–4 immobilised on a Ni-NTA chip, DPgn injected at successive concentrations in duplicate, ovalbumin as control; Pi, imidazole, NaCl buffer; close to 27 °C; one to two model (TraceDrawer 1.5). (SPR reads the build-up and loss of mass on a sensor chip optically.)

For orientation: stoichiometry N means a count of units in the complex or per binding partner. A word on the Kd: it is the equilibrium constant for the complex coming apart. A high value points to weaker binding.

With Str. enolase 137/363–2 K252A K255A, in the data set on P69949, the % monomer (from AUC) was 70.4%.
The same measure, in the same setting: then Str. enolase DB, with 0.4 (nil?).
In data set [1], “Str. enolase DB (from UniProt P69949 1-435) (enzyme)” registered a % octamer (from AUC) of 88% and a stoichiometry N of 8.
Str. enolase DB no hexa-his tag: the % monomer (from AUC) with P69949 stood at 1.3%.
Substance “Str. enolase DB no hexa-his tag (from UniProt P69949 1-435) (enzyme)” registered a % octamer (from AUC) in data set [2] of 81.6%.
As for “Str. enolase F137L/E363G (from UniProt P69949 1-435) (enzyme)”, in [3], the stoichiometry N was 8.
As to canine plasminogen (natural protein), in [4], the Ka came out at 340000 M⁻¹ and the Kd was 3000 nM. The Ka in data set [5] was below 10000 M⁻¹. Further, the mass of enolase + DPgn layer in [6] was 5.3 ng/mm^2. Also, in data set [7], the mass of enolase + DPgn layer turned out to be 2.8 ng/mm^2. In data set [8], this substance returned a KD1 (site 1 of a one to two model) of 1.34 µM, a KD2 (site 2 of a one to two model) of 2.66 µM, a ka1 (site 1 of a one to two model) of 1300 and a ka2 (site 2 of a one to two model) of 9600. Further, in [8], the kd1 (site 1 of a one to two model) was 0.0017, the kd2 (site 2 of a one to two model) is 0.026 and the stoichiometry N (DPgn per enolase monomer) was 1.6.
